Experimental data published in patent US20030153520A1 (published 2003).

Assays:
[1] = target: endogenous SNAP25 (rat brain extract; PC12 cells) (rat, UniProt P60881 1-206); experiment: co-immunoprecipitation with anti-SNAP25 from Triton X-100 extract of rat brain
Experimental: FIG. 4A illustrates that TI-VAMP forms a complex with SNAP25 in Triton X100 extract of rat brain. Immunoprecipitation with anti-SNAP25 antibodies was performed from Triton X100 soluble extract of rat brain as described in the Materials and Methods section of example 1 and immunoprecipitated proteins were detected by western blot analysis with the indicated antibodies (synaptobrevin 2, Sb2: cellubrevin, Cb: U, unbound, B: bound to anti-SNAP25 immunobeads). The bound fraction corresponded to a 65-fold enrichment compared to unbound. The SNAP25 TI-VAMP complex seemed more abundant than the SNAP25 synaptobrevin 2 one but this may only reflect a lower expression level of TI-VAMP compared to synaptobrevin 2 in the adult brain.
Immunoprecipitation: Immunoprecipitation from rat brain was performed using a Triton X-100 soluble membrane fraction prepared as follows: two adult rat brains were homogenized, with a glass teflon homogenizer (9 strokes at 900 rpm) in 25 ml of 0.32M sucrose containing a protease inhibitor cocktail. All the steps were carried out at 4° C. After 10 min centrifugation at 800 g the supernatant was centrifuged at 184000 g for 1 hour, obtaining a cytosolic and a membrane fraction in the supernatant and the pellet, respectively. […]

6xhis-tagged SNAP25A = target: T1, 6xhis-tagged SNAP25A (UniProt P60881-2 1-206); experiment: overlay assay
T1 construct: also called 6xhisSNAP25; 6xhis-SNAP25; not shown: 6xhis tag
T1 sequence (P60881 other isoform, or with tags, fused parts or gaps limits assumed): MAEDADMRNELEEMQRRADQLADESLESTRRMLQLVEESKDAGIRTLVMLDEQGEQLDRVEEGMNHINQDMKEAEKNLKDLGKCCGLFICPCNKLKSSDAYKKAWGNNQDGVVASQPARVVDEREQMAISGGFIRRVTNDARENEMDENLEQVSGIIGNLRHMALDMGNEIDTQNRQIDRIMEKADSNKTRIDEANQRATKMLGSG
Experimental: The binding of GST, GST-Cyt-TIVAMP, GST-ter-TIVAMP, or GST-CC-TIVAMP was measured by overlay over immobilized 6xhis-SNAP25 (indicated by the arrow). GST-CC-TIVAMP bound efficiently to immobilized 6xhis-SNAP25. Little binding of GST-Cyt-TIVAMP and none of GST and GST-Nter-TIVAMP were observed.
Overlay assay: The corresponding GST fusion proteins and GST alone were produced and purified as previously described, 6xhis-tagged SNAP25A (6xhisSNAP25, bacterial strain is available from G. Schiavo, ICRF, London, UK) was purified. 6xhisSNAP25 was run on SDS-PAGE and western blotted onto Immobilon-P membrane (Millipore, Bedford, Mass.). The amount of 6xhisSNAP25 corresponds to 1.25 μg/mm of membrane, 4 mm strips of the membrane were cut and incubated in 150 mM NaCl, 5% non fat dry milk. 50 mM phosphate pH7.5 buffer for 1 hour at room temperature. The strips were then incubated with 10 nM the GST-fusion proteins overnight at 4° C. in buffer B (3% BSA, 0.1%, Tween20 20 mM Tris pH: 7.5) containing 1 mM DTT. The strips were rinsed three times in buffer B at room temperature, incubated with anti-GST antibodies in butfer B for 1 hour, rinsed in buffer B three times and incubated with alkaline phosphatase-coupled sheep anti-mouse antibodies. The detection as carried out simultaneously for all the strips, for the same time, using a kit from Promega (Madison, Wis.).

endogenous SNAP25 (rat brain extract; PC12 cells), sequence (P60881 whole entry): as the sequence (P60881 other isoform, or with tags, fused parts or gaps limits assumed) above, with D58E, V60I, N65D, H66Q, Q69K, K79T, C84F, F88C, I89V counted along it

B1: endogenous cellubrevin (rat brain) (other, UniProt P63025 1-103, looked up)
chain: MSTGVPSGSSAATGSNRRLQQTQNQVDEVVDIMRVNVDKVLERDQKLSELDDRADALQAGASQFETSAAKLKRKYWWKNCKMWAIGISVLVIIVIIIIVWCVS
notes: also called Cb
Q: Does B1 bind [1]?
A: no binding

B2: GST-Cyt-TIVAMP (other)
chain: MAILFAVVARGTTILAKHAWCGGNFLEVTEQILAKIPSENNKLTYSHGNYLFHYICQDRIVYLCITDDDFERSRAFNFLNEIKKRFQTTYGSRAQTALPYAMNSEFSSVLAAQLKHHSENKGLDKVMETQAQVDELKGIMVRNIDLVAQRGERLELLIDKTENLVDSSVTFKTTSRNLARAMCMKNLK
notes: also called full cytoplasmic domain of TI-VAMP fused to GST; not shown: glutathione S-transferase (GST) tag encoded by the pGEX4T vector (Pharmacia)
Q: Does B2 bind (6xhis-tagged SNAP25A)?
A: binds
